Data published in patent US20160200815A1.

How the values were obtained:
[1] = molecular target: human TIM-3 on cells (human) (UniProt Q8TDQ0); test: cell-based or functional assay
[2] = molecular target: hTIM3-Fc murine CC′ loop (human, CC′ loop replaced by mouse TIM-3); test: ELISA, construct coated on plate
[3] = molecular target: hTIM3-Fc murine BC loop (human, BC loop replaced by mouse TIM-3); test: ELISA, construct coated on plate
hTIM3-Fc WT (human) = test: ELISA, construct coated on plate
[4] = molecular target: hTIM3-Fc murine DE loop (human, DE loop replaced by mouse TIM-3); test: ELISA, construct coated on plate
[5] = molecular target: hTIM3-Fc murine FG loop (human, FG loop replaced by mouse TIM-3); test: ELISA, construct coated on plate
[6] = molecular target: hTIM3-Fc murine C′C″ loop (human, C′C″ loop replaced by mouse TIM-3); test: ELISA, construct coated on plate

IL-2 secretion by SEB-activated PBMCs (% of the activity of anti-PD-L1) [1]: 50
Absorbance at 450 nm [2]: 0.094 A450
Absorbance at 450 nm [3]: 1.23 A450
Absorbance at 450 nm (hTIM3-Fc WT (human)): 1.34 A450
Absorbance at 450 nm [4]: 0.978 A450
Absorbance at 450 nm [5]: 1.48 A450
Absorbance at 450 nm [6]: 1.48 A450
Substance: anti-TIM-3 mAb F38-2E2 (BioLegend, 345010) (antibody)
